According to paper PMC4855518 (Nature, 2016):

Target: G. thermodenitrificans SecYE (Geobacillus thermodenitrificans NG80-2, UniProt A4IJK8;A4IJH4)
Experiment: SEC

B1: nanobody AYC08 (VHH)
VHH: QVQLVETGGGLVQPGGSLRLSCGASGSIFNMYAMGWYRQAPGKQREVVARIATDDSTMYPDSVKGRFTISRDNAKNTVYLQMNSLKPEDTAVYYCYYQRTVMSQPYWGQGTQVTVSS
- binding result: binds
